This is an account of results in patent US20090156496A1, “METHODS AND COMPOSITIONS FOR TREATING AND PREVENTING PERIPHERAL NERVE DAMAGE” (CHILDREN'S MEDICAL CENTER CORPORATION, INC., priority 2006, published 2009).

Entries after “also recorded” stand apart in the source; their conditions may differ.

Assay [1] deals with RGCs. In words: axon outgrowth in primary adult retinal cultures. The class given is cell-based, rat. The method, then:
Protein A beads (Sigma) were incubated with either rabbit anti-OM antiserum (Swant) or normal rabbit serum (Invitrogen) for 16 h at 4° C. After extensive rinsing, beads with adsorbed IgGs were mixed with MCM (1 ml 10× concentrate, collected 8 h after zymosan treatment) for 24 h at 4° C. and then pelleted down by centrifugation. We tested 5 μl of the supernatants or untreated MCM for oncomodulin by western blotting. Bioactivity of immune-depleted and control MCM was tested in dissociated RGC cultures as described below at a 1:4 dilution, a concentration found to give a near-maximal response.
(§1) Adult rat retinal cultures were prepared as described^21. […] One week later, retinas were dissected, dissociated, and the cells plated in defined, serum-free medium. Axon growth (% RGCs extending axons ≧30 μm, ≧70 μm or ≧140 μm in length) was evaluated after 3 d in quadruplicate samples in a blinded fashion. All experiments were repeated at least three separate times. In some instances, cells were immunostained with GAP-43 antibody (1:500, Chemicon).

For assay [2], the system named is RGCs. In words: ligand binding assay with AP-oncomodulin fusion proteins on immunopurified RGCs. Set-up: species or system rat. The method, then:
Adult rat retinal cells were dissociated as above and then isolated by immunopanning^31,46 using antibody MAC1 followed by an antibody to Thy1 (Chemicon). Purity was ˜98% based upon counting Fluorogold-labeled versus total cells. RGCs, treated with or without forskolin, were lightly fixed after 14-16 h in culture (4% paraformaldehyde (PFA), 6 min) before binding assays.
Binding assays were carried out as described^48 with slight modifications. Briefly, lightly fixed, immunopurified RGCs were incubated with AP-OM or AP (37° C., 24 h).
After extensive rinsing, cells were fixed again, heated (65° C., 90 min) to destroy endogenous AP and incubated with nitro blue tetrazolium chloride/5-bromo-4-chloro-3-indoyl phosphate toluidine salt (BCIPINBT). In some instances, AP-OM or AP (control), with or without forskolin, was added to the cultures before the initial fixation. Absorbance was measured with Image J software (US National Institutes of Health) and corrected by subtracting the level of AP binding. Binding curves and Scatchard plots were generated using Prism software. For displacement studies, varying concentrations of unlabeled oncomodulin were added to cultures after the equilibrium binding of 40 mM AP-OM at 37° C. for 24 h.

In assay [3] the test system is RGCs. In words: RGC survival in primary retinal cultures. The format is cell-based, rat. The note with it: retinal culture. The method, then: as §1
The subject of the next assay is optic nerve. Kind of assay: optic nerve regeneration in vivo after nerve crush, intraocular PLGA microspheres. Also on record: species or system rat. The note with it: 2 weeks, agent by itself. The method, then: Microspheres were prepared from lyophilized oncomodulin or sp-8-Br-cAMPs (Sigma) with PLGA using the solvent evaporation method of single emulsion^49. To measure the rate of protein release in vitro, 10 mg of oncomodulin-containing beads were incubated in phosphate-buffered saline (PBS; 37° C.). Supernatants were collected every 3 d and analyzed on western blots.
Optic nerve surgery was carried out on male Fisher rats (200-250 g) as described^18. Three days after nerve crush, rats received intraocular injections of blank microspheres or microspheres containing oncomodulin, sp-8-Br-cAMPs or both, in 10 μl saline after the same fluid volume was withdrawn from the eye (n=8-12 per group). Rats were killed 2 weeks later and their retinas, with optic nerves attached, were prepared as described^18,21. Axon growth was evaluated by GAP-43 immunostaining in the optic nerve at distances of 500 μm and 1 mm from the injury site^18,21. The length of the longest axon was measured in each case and averaged across all cases within each group.

In the next assay the test system is P-CREB. Kind of assay: P-CREB immunostaining in RGCs after intravitreous injection. The class given is in vivo, rat. Conditions: 2 h after intravitreous injection, 1 μg μl^−1, 5 μl. The method, then:
To investigate the immediate effects of oncomodulin in vivo, rats received an intravitreous injection of the protein (1 μg μl^−1, 5 μl volume, n=6) and were killed 2 h later. Retinal sections were immunostained to detect the phosphorylated form of the transcriptional activator CREB (antibody to P-CREB, 1:100, Cell Signaling Technology). Fluorescent photomicrographs were taken 2 mm from the optic nerve head.

Assay [4] relates to DRG neurons. In words: neurite outgrowth of DRG neurons cultured after intraganglionic injection in vivo. The class given is cell-based, rat. The method, then: (§2) L4-L5 DRGs from adult male Sprague-Dawley rats (250-300 g) were injected with 5 μl of saline or oncomodulin (200 ng μl^−1). After 7 d, injected ganglia were dissected and single-cell suspensions were prepared as described^50. Cells were cultured on laminin (Sigma) with or without CSPGs (Chemicon) for 20 h or 40 h. In some cases, chondroitinase ABC (0.5 U ml^−1, Seikagaku) was added. Neurite outgrowth was visualized by Tuj1 antibody to class III β-tubulin (1:5,000, Babco) and quantified in quadruplicate samples by a blinded observer. In other studies, L4-L5 DRG neurons were cultured in the presence of absence of oncomodulin, mannose and/or forskolin in RPMI-1640 to limit spontaneous outgrowth. Cells were fixed and immunostained after 3 d and evaluated for outgrowth.

The test system of assay [5] is DRG neurons. In words: neurite outgrowth of naive DRG neurons in culture. The format is cell-based, rat. The note with it: 3 d culture. The method, then:
as §2

The mark [6] stands for this setting: in the absence of forskolin and mannose.
The mark [7] stands for this setting: in the presence of forskolin and mannose, 3 d, BDNF 50 ng ml^−1, CNTF 10 ng ml^−1, GDNF 50 ng ml^−1.

B1: BDNF: brain-derived neurotrophic factor (protein, UniProt P23560 19-247, looked up)
Neurotrophic factor BDNF …: APMKEANIRGQGGLAYPGVRTHGTLESVNGPKAGSRGLTSLADTFEHVIEELLDEDQKVRPNEENNKDADLYTSRVMLSSQVPLEPPLLFLLEEYKNYLDAANMSMRVRRHSDPARRGELSVCDSISEWVTAADKKTAVDMSGGTVTVLEKVPVSKGQLKQYFYETKCNPMGYTKEGCRGIDKRHWNSQCRTTQSYVRALTMDSKKRIGWRFIRIDTSCVCTLTIKRGR
Regarding B1, the “axon outgrowth from RGCs in culture” value was “Neither oncomodulin nor any of the other factors stimulated outgrowth” in the assay with RGCs [1] (setting [6]) and “ineffective” in the assay with RGCs [1] (setting [7]).

B2: CNTF: ciliary neurotrophic factor (protein, UniProt P26441 1-200, looked up)
Ciliary neurotrophic factor: MAFTEHSPLTPHRRDLCSRSIWLARKIRSDLTALTESYVKHQGLNKNINLDSADGMPVASTDQWSELTEAERLQENLQAYRTFHVLLARLLEDQQVHFTPTEGDFHQAIHTLLLQVAAFAYQIEELMILLEYKIPRNEADGMPINVGDGGLFEKKLWGLKVLQELSQWTVRSIHDLRFISSHQTGIPARGSHYIANNKKM
As to B2, the “axon outgrowth from RGCs in culture” value in the assay with RGCs [1] (setting [6]) is listed as “Neither oncomodulin nor any of the other factors stimulated outgrowth”; in the assay with RGCs [1] (setting [7]) it was “increased axon growth”.

B3: AP-OM: alkaline phosphatase (AP)-oncomodulin fusion protein (protein)
chain: MSITDILSAEDIAAALQECQDPDTFEPQKFFQTSGLSKMSASQVKDIFRFIDNDQSGYLDGDELKYFLQKFQSDARELTESETKSLMDAADNDGDGKIGADEFQEMVHS
modifications: left off: large carriers; small tags and cut ends
notes: alkaline phosphatase (AP)-oncomodulin fusion protein
Consider B3, for which the “binding to RGCs” value is given as “bound strongly” in the assay with RGCs [2] ([cAMP]i elevated with forskolin); “Neither AP-OM nor AP showed appreciable binding” with RGCs [2] (basal conditions (no forskolin)); “bound even without previous forskolin treatment” in the assay on RGCs [2] (untreated RGCs permeabilized after light fixation, no forskolin).

B4: oncomodulin: 11.7-kDa Ca2+-binding protein secreted by macrophages; recombinant rat oncomodulin expressed in Escherichia coli (protein)
chain: SITDILSAEDIAAALQECQDPDTFEPQKFFQTSGLSKMSASQVKDIFRFIDNDQSGYLDGDELKYFLQKFQSDARELTESETKSLMDAADNDGDGKIGADEFQEMVHS
What is called Kd is the constant that tells how readily two partners part at equilibrium. The term IC50 denotes the concentration that inhibits the measured activity by half. In the case of B4, the EC50 in the assay with RGCs [1] (RGCs, forskolin and mannose present, read-out: effective concentration for half-maximum response (EC50), axon outgrowth) was approximately 3.8 nM. For the same molecule, the figures for the “axon outgrowth from RGCs in culture” value with RGCs [1] (setting [6]) and with RGCs [1] (setting [7]) were “Neither oncomodulin nor any of the other factors stimulated outgrowth” and “nearly doubled the amount of outgrowth”, respectively. Also, in the assay on RGCs [3], the RGC survival entry is listed as “Neither oncomodulin nor any other factor enhanced RGC survival above baseline”. The “concentration at which binding saturated” value in the assay with RGCs [2] (AP-OM binding to RGCs) was “greater than 100 nM”. Besides, the Kd on RGCs [2] (AP-OM, forskolin-treated RGCs, Scatchard plot, read-out: dissociation constant (Kd), binding to RGCs) was 28 ± 5 nM. For the same molecule, the IC50 at RGCs [2] (displacement of AP-OM by unlabeled oncomodulin, read-out: IC50, reversibility of binding to RGCs) is approximately 30 nM. Moreover, the “displacement of AP-OM from RGCs” value in the assay with RGCs [2] (excess unlabeled competitor (100-fold)) was “displaced AP-OM from RGCs”. In addition, the “axon regeneration in optic nerve” value in the assay with optic nerve is “had no effect”. Moreover, in the assay on P-CREB, the “level of P-CREB in RGCs” value is “markedly increased”. Further, in the assay with DRG neurons [4] (CSPG substrate), the “DRG neurite outgrowth on nonpermissive substrate” value is recorded as “promoted some outgrowth; also recorded: stimulated some outgrowth”. The “DRG neurite outgrowth on permissive substrate” value with DRG neurons [4] (exposed in vivo 1 week, poly-D-lysine+laminin, vs vehicle) is recorded as “considerably greater outgrowth”. In the assay with DRG neurons [5], the “outgrowth of previously untreated DRG neurons” value was “acts on previously untreated DRG neurons”.
